Results taken from article PMC3820651, “Cyclic Nucleotide Dependent Dephosphorylation of Regulator of G-Protein Signaling 18 in Human Platelets” (PLoS ONE, 2013).

Target: T1, GST-tagged 14-3-3γ (UniProt P61981 1-247)
T1 construct: 14-3-3γ, in the bacterial expression vector pGEX-4T3; Held on glutathione sepharose 4B as bait; also called GST-14-3-3γ; GST-14-3-3
T1 sequence (looked up): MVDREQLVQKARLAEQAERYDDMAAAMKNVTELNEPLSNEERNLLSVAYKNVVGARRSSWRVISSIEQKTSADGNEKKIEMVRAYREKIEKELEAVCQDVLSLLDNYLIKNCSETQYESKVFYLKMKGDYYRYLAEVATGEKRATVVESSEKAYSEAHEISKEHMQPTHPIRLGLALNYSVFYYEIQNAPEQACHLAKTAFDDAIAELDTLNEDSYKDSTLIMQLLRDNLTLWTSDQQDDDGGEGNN
Assay: pull-down; glutathione sepharose 4B saturated with purified GST-14-3-3γ, incubated with lysates of transfected HEK293T cells; cells without or with 10 µM forskolin (time course or 15 min), RGS18 alone or co-expressed with myc-spinophilin and/or VSV-PP1 catalytic subunit; precipitates blotted with anti-RGS18 or anti-FLAG
Conditions: one partner purified

fold reduction of binding by forskolin against non-treated cells (cells expressing RGS18, spinophilin and PP1): 21 fold | fold reduction of binding by forskolin against non-treated cells (cells expressing RGS18 alone): 2.6 fold | fold reduction of binding by forskolin against non-treated cells (cells expressing RGS18 and PP1): 25 fold | fold reduction of binding by forskolin against non-treated cells (cells expressing RGS18 and spinophilin): 3.7 fold
B1: FLAG-tagged RGS18 (wild type) (natural protein, human, UniProt Q9NS28 1-235, looked up)
chain: METTLLFFSQINMCESKEKTFFKLIHGSGKEETSKEAKIRAKEKRNRLSLLVQKPEFHEDTRSSRSGHLAKETRVSPEEAVKWGESFDKLLSHRDGLEAFTRFLKTEFSEENIEFWIACEDFKKSKGPQQIHLKAKAIYEKFIQTDAPKEVNLDFHTKEVITNSITQPTLHSFDAAQSRVYQLMEQDSYTRFLKSDIYLDLMEGRPQRPTNLRRRSRSFTCNEFQDVQSDVAIWL
modifications: phosphoserine at S218 present in the basal state; phosphoserine at S49 (s3 band); phosphoserine at S216 after forskolin
notes: Regulator of G-protein signaling 18 (RGS18), 235 amino acids, in pcDNA4/TO; also called wt RGS18; wt-RGS18; source: HEK293T, transfected, in lysate
